Patent publication US6869925 (Amgen, dated 2005)

Legend:
[1] = biological target: SLPI binding sites on U937 cells (human monocyte cell line; intact cells, PMA-induced cells or plasma membranes) (human); assay: competition with 125I-SLPI, intact U937 cells, cold SLPI at 84 nM
[2] = biological target: SLPI binding sites on HuT78 cells (human T cell line) (human); assay: competition with 125I-SLPI, intact HuT78 cells, cold SLPI at 0.00 nM
[3] = biological target: SLPI binding sites on U937 cells (human monocyte cell line; intact cells, PMA-induced cells or plasma membranes) (human); assay: competition with 125I-SLPI, intact U937 cells, competitor at 0.024 nM
[4] = biological target: SLPI binding sites on U937 cells (human monocyte cell line; intact cells, PMA-induced cells or plasma membranes) (human); assay: competition with 125I-SLPI, intact U937 cells, competitor at 0.80 nM
[5] = biological target: SLPI binding sites on U937 cells (human monocyte cell line; intact cells, PMA-induced cells or plasma membranes) (human); assay: 125I-SLPI saturation binding, U937 cells plus PMA, *SLPI at 320 pM
[6] = biological target: SLPI binding sites on HuT78 cells (human T cell line) (human); assay: competition with 125I-SLPI, intact HuT78 cells, cold SLPI at 860 nM
[7] = biological target: SLPI binding sites on U937 cells (human monocyte cell line; intact cells, PMA-induced cells or plasma membranes) (human); assay: 125I-SLPI saturation binding, intact U937 cells, *SLPI at 320 pM
[8] = biological target: SLPI binding sites on U937 cells (human monocyte cell line; intact cells, PMA-induced cells or plasma membranes) (human); assay: 125I-SLPI saturation binding, U937 cells plus PMA, *SLPI at 80 pM
[9] = biological target: SLPI binding sites on U937 cells (human monocyte cell line; intact cells, PMA-induced cells or plasma membranes) (human); assay: competition with 125I-SLPI, intact U937 cells, cold SLPI at 0.078 nM
[10] = biological target: SLPI binding sites on U937 cells (human monocyte cell line; intact cells, PMA-induced cells or plasma membranes) (human); assay: 125I-SLPI saturation binding, U937 cells plus PMA, *SLPI at 640 pM
[11] = biological target: SLPI binding sites on U937 cells (human monocyte cell line; intact cells, PMA-induced cells or plasma membranes) (human); assay: competition with 125I-SLPI, intact U937 cells, cold SLPI at 270 nM
[12] = biological target: SLPI binding sites on U937 cells (human monocyte cell line; intact cells, PMA-induced cells or plasma membranes) (human); assay: 125I-SLPI saturation binding, intact U937 cells, *SLPI at 160 pM
[13] = biological target: SLPI binding sites on U937 cells (human monocyte cell line; intact cells, PMA-induced cells or plasma membranes) (human); assay: competition with 125I-SLPI, intact U937 cells, competitor at 0 nM
[14] = biological target: SLPI binding sites on elutriated human peripheral blood monocytes (human); assay: 125I-SLPI binding to intact monocytes
[15] = biological target: SLPI binding sites on U937 cells (human monocyte cell line; intact cells, PMA-induced cells or plasma membranes) (human); assay: competition with 125I-SLPI, intact U937 cells, competitor at 2750 nM
[16] = biological target: SLPI binding sites on HuT78 cells (human T cell line) (human); assay: competition with 125I-SLPI, intact HuT78 cells, cold SLPI at 0.25 nM
[17] = biological target: SLPI binding sites on U937 cells (human monocyte cell line; intact cells, PMA-induced cells or plasma membranes) (human); assay: competition with 125I-SLPI, intact U937 cells, cold SLPI at 0.00 nM
[18] = biological target: SLPI binding sites on U937 cells (human monocyte cell line; intact cells, PMA-induced cells or plasma membranes) (human); assay: competition with 125I-SLPI, intact U937 cells, competitor at 0.078 nM
[19] = biological target: SLPI binding sites on U937 cells (human monocyte cell line; intact cells, PMA-induced cells or plasma membranes) (human); assay: Scatchard plot of 125I-SLPI saturation binding, PMA-induced U937 cells
[20] = biological target: SLPI binding sites on U937 cells (human monocyte cell line; intact cells, PMA-induced cells or plasma membranes) (human); assay: 125I-SLPI saturation binding, intact U937 cells, *SLPI at 5120 pM
[21] = biological target: SLPI binding sites on HuT78 cells (human T cell line) (human); assay: competition with 125I-SLPI, intact HuT78 cells, cold SLPI at 2.6 nM
[22] = biological target: SLPI binding sites on U937 cells (human monocyte cell line; intact cells, PMA-induced cells or plasma membranes) (human); assay: competition with 125I-SLPI, intact U937 cells, cold SLPI at 0.80 nM
[23] = biological target: SLPI binding sites on U937 cells (human monocyte cell line; intact cells, PMA-induced cells or plasma membranes) (human); assay: 125I-SLPI saturation binding, intact U937 cells, *SLPI at 640 pM
[24] = biological target: SLPI binding sites on U937 cells (human monocyte cell line; intact cells, PMA-induced cells or plasma membranes) (human); assay: 125I-SLPI saturation binding, U937 cells minus PMA, *SLPI at 10,240 pM
[25] = biological target: SLPI binding sites on U937 cells (human monocyte cell line; intact cells, PMA-induced cells or plasma membranes) (human); assay: 125I-SLPI saturation binding, U937 cells plus PMA, *SLPI at 20,480 pM

serine leukocyte protease inhibitor (SLPI), sequence (P03973 26-132): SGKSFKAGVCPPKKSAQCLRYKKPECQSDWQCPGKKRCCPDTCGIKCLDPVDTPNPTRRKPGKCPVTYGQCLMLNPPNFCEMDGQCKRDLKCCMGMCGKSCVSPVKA

“serine leukocyte protease inhibitor (SLPI) (from UniProt P03973 26-132)” gave a % *SLPI BOUND [1] of 3.5%, a % *SLPI BOUND [2] of 100% and a % *SLPI BOUND [3] of 111%. It also gave a % *SLPI BOUND [4] of 78%, a bound pM [5] of 65 pM and a bound per free [5] of 0.255. The sites bound per cell (sites per cell) [5] was 3920, the specific cpm [5] was 698 cpm and the % *SLPI BOUND [6] was 8.7%. The bound *SLPI (pM) [7] was 65.7 pM, the bound per free [7] was 0.258 and the sites bound per cell (sites per cell) [7] was 3960. The specific cpm [7] was 2620 cpm, the bound pM [8] was 32 pM and the bound per free [8] was 0.67. For the same substance, the sites bound per cell (sites per cell) [8] was 1910, the specific cpm [8] was 339 cpm and the % *SLPI BOUND [9] was 101%. The bound pM [10] was 103 pM, the bound per free [10] was 0.192 and the sites bound per cell (sites per cell) [10] was 6200. It also gave a specific cpm [10] of 1100 cpm, a % *SLPI BOUND [11] of 0% and a bound *SLPI (pM) [12] of 32.9 pM. It also gave a bound per free [12] of 0.259, a sites bound per cell (sites per cell) [12] of 1980 and a specific cpm [12] of 1320 cpm. For the same substance, the % *SLPI BOUND [13] was 109%, the *SLPI concentration at saturation (micrograms/ml) [14] was 0.5 and the *SLPI concentration required for half-maximal binding [14] was 10 nM. It also gave a % *SLPI BOUND [15] of 4%, a % *SLPI BOUND [16] of 69% and a % *SLPI BOUND [17] of 94%. It also gave a % *SLPI BOUND [18] of 111%, a Kd [19] of 1 nM and a bound *SLPI (pM) [20] of 379 pM. For the same substance, the bound per free [20] was 0.08, the sites bound per cell (sites per cell) [20] was 22800 and the specific cpm [20] was 15100 cpm. The % *SLPI BOUND [21] was 56%, the % *SLPI BOUND [22] was 77% and the bound *SLPI (pM) [23] was 116 pM. For the same substance, the bound per free [23] was 0.221, the sites bound per cell (sites per cell) [23] was 6990 and the specific cpm [23] was 4630 cpm. It also gave a bound *SLPI (pM) [24] of 844 pM, a bound per free [24] of 0.09 and a sites bound per cell (sites per cell) [24] of 50800. It also gave a specific cpm [24] of 9020 cpm, a bound pM [25] of 255 pM and a bound per free [25] of 0.0126. For the same substance, the sites bound per cell (sites per cell) [25] was 15400 and the specific cpm [25] was 2720 cpm.
